Laboratory results: a protein production outcome set (Wang et al. 2014)

Test: label from the status in PepcDB records
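Further: failed if final PepcDB status was selected cloned or expressed and not failed if soluble or beyond.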

| Sequence | protein production |
| --- | --- |
| MPQFASKAEEKNYYERQASLAEFLTWYHQQELPEYEKPSLTVDMVLLCYNKEADQLKVLLIQRKGHPFRNSWALPGGFVNRNESTEDSVLRETKEETGVVISQENIEQLHSFSRPDRDPRGWVVTVSYLAFIGEEPLIAGDDAKEVHWFNLERHGQHITLSHEDVEITLDLKTAASLGKDTLAFDHSEIIIKAFNRVVDKMEHEPQVLQVLGKDFTITEARKVFAKFLGVDYRSIDHSNFKKAMTQYFEELGERPVGIGRPSKIYQLKTTTGF | not failed |
| MGHHHHHHSHMATGEEVPRTIIVTTRSQYGLPEDAIVYCNFNQLYKIDPSTLQMWANILKRVPNSVLWLLRFPAVGEPNIQQYAQNMGLPQNRIIFSPVAPKEEHVRRGQLADVCLDTPLCNG | failed |
| AIAAEMKTYSHRTMPSACTLVMCSSVESGLPGRDGRDGREGPRGEKGDPGLPGAAGQAGMPGQAGPVGPKGDNGSVGEPGPKGDTGPS | failed |
| MLRGILWDMDGTLVDSEGIWAQATFAMSTEMGRRLTAAQQRETVGSSFNFTVSLCASNAGIELDSEAKNYWQSFMSHYVTEKFDSSLLPNPGIKEVLDSCRNAEIPMAIATNTIRSIANHSIGAVGIEYFKATVCGDEVANPKPAPDVYLKGAQALGVPPEGCIVFEDSKSGMLGGLAAGCIVISVVDHLNNQPLPEGVVPLSRLHGSADFRGVSAEEIMQWYATLSPNAQ | failed |
| MLGELDLATVILMQKCSYIVGLLSFIYLKMSNRGLPGPVHLAAGFAAMTVGSTLAGYGEWKILSPALWELGSVLFGIAGYALIWLGLKTLSDGRFVNRKTILFTCLVALLAIGVALQVAGNNTFRAALFNGCAALAYLGGAGVLFARWRKEPLLSRLALGAITGVSGLISLAVMKSVLFPGYASINLVTAFFFIIMLNFAISLFVMMLVAERSERKLLVLANTDPLTGVKNRRFFFQTMPAAPDPADAAMLLDIDHFKSINDRFGHAVGDSVLQEVARRISGSIRGGDVLARYGGEEFIIFLPGAGVDKACMIGERIRDAVAINEVDCGGLRVGVTISIGVATTGDMRCDLQMLAEKADRALYRAKTEGRNCVREALAA | failed |
| MLTRYLAIAAIALALTGLGGCSVNPVTGEKQLSLISENQELALGAEQYTPTQQTQGGRFYIDPELSIYVRDVGQKLARVSDRPDLPYEFVVLNNSVPNAWALPGGKIAINRGLLVELEDEAQLASVLGHEIVHAAARHSVQRMQQGMLISAGVAGLGFALSDNEWAGLIMGGAALGAQLALAQYSQGDELESDAYGIRYMKEAGYDPQAAVELQQLFLKLSEGRQSGWLDGLFATHPPSAKRVQENQELVQNIGSGGYRGRDVYQRRIAKLKELQPAYDAHDEAMKLASEGKFEAALDQVNKAIKLEPREAMLFALRGRIYRGMEQPEKAKADFDKAVSLYPEMFQYQLYSGLNELELNNLGKAKTHLEKANQVVPTSIAYLRLGDIARQQGQRSEAVAYYSTAAEAGGDVGAEAQRKLAELSN | failed |
| MFCGRFANFIMRDVINFIKKYNNFVIIGHKDPDFDCIGSSLALSSFLSRIGKNSILLNEGPFIRKEIVPFKDKFLSEWPNIEISEYSVIILDCSILDRIGDEFIFYVKNMPTLVIDHHMSGEKLECEGYIDPFAPSTTFLIEKLIREFGHDLTKEEAWYILVGFCTDTGFFKFISRSDPEPFEMVARLVSKGISLKEVYSYIETTKSLKSIETLKLMLNSLESYWNGKVLFTFLSSSSSGKDGGVSGVNELFYMILSNVENNEILGILKEMEDGSIIVGLRSKDSFDVGKLAEDFGGGGHKNASGFRIKQGSLEIVKNRMLAYIKDNIYLLEHHHHHH | failed |
| MIGKHFIITGATSGLGFAITNELLQRGAHVTILARNIDKFNRIKENYFKPEHINVIKCDLMQRKDIESLQKFLNTPINGFIYSSGVGYFKSISEHSTREVVETYEVNLTNFNLLYKVIQPQLVKAAYIVGISSQAALVSQANAAHYGASKAGFSAVLNALRLEQPELKVLNVQPGPIDTPFQKNADPTLKYFKNYRHMMIQPQQLAKQIVEGIILNKIEINQPSWMQIMLKFYQLCPRTLEKLCPNLFKNKV | failed |
| MQKKTQKLTVYVIVGLLIISLVGTSFMFLGDMRPTVGKNYQDQINSLKQALEANPQDTQTRLALADTYYDWGMQTLSQDMAEENLATTTSILQQAVTEYQEVLKTEKNVNILVDMATAAFYTSQNELADQTFQEALQEDPNFYNGLYNYGVFLYSQGDYGKAIEQWEKALALENISTDDKERLERNIKLAQDGIVQQFQQPENGDSSDANAEAK | failed |
| MGHHHHHHSHSSEVNATEEMSTLVNYIEPVKFKSFEAARKRNKCFEMSSFVETKAMEQLTKSPMEFVEYNKQQLSRIYPKGTRVDSSNYMPQLFWNVGCQLVALNFQTLDVAMQLNAGVFEYNGRSGYLLKPEFMRRPDKSFDPFTEVIVDGIVANALRVKVISGQ | failed |
| TDGEGEDPAEYPTVNHKIEKAIEVTKTGLEEYENPVVMWTGGKDSTLTLYFVKEVAERFDLEVPPVVFIDHYQHFDELIDFVEHWADEWDLDVIWARNEDVGNYVDENGLEPGDDIPVDELSEHNQHHIRNILEYEEDTFPFLLDTYVGNHLLKTVALNDTIEEHDVDGILSGIRWDEQESRADETFFSPRHDPDIYPPHDRIQSILQFAEADVWEAFWNFVVPDTVEGYPDEGYVPQGQDDLPEGIEKEDVPVSPKYFAGFRSLGSE | failed |
| MSENENSQEKNELLDALNSVEEVNVGDVVKGEVLAIDDDKQVIVGIQGTGVEGVVPLKELSTQRVDDVNEAAKVGDVLDLVVISRIGSDKENGSYLLSHRRLEARKVWDDVEKEYEAGHTIKAPVTQVVKGGLVVDAGVRGFIPASMIDDHYVEDLNAYKGQELELKIIEIEPSENRLILSHRAVVEKQREAQREEALKTLQAGDVVEGKVARLTNFGAFVDLGGIDGLVHVSEISYERVEKPADVLKVGQEVTVKILSVDADRERVSLSIKATLPEPWDGIEEKAPQGAVLDGKVKRLTSFGAFVEVFPGVEGLVHISQISHQHIATPNDVLKVGQEIKVKVLDVRPDEKRLALSIKALEEKPQTADDDNESQPERRSNNNRRRNNNRDNRTASERSTANAPEESTGFTLGDLIGDELKNAESNNDENLEHHHHHH | failed |
| MLTDPFFYLVAIPAVILLGLTKGGFAGIGVVAVPMMTLAVSPVMAASIILPILLVQDVVSVWSFRKTWDKAILVLMLPAAAVGIFLGWALAALVEEAAVELAVGAISVVFALQRLWAEHALRAADSIEAGPARPWLGVLCGATAGFTSQIAHAGGPPFQIYVLPRGLPRDVFIGTSAIFFGVVNWMKVPAYLALGQLTPQALATAGVLLPLAIASTWAGVWLVRRVPAEGFYKVIYVLLVLVGGKLMFDGARGLLT | failed |
| MGTTEKSGIKEIIIQGLTRAGKPFRPSDWVDRMCSTYASFGADRKLRYSPYLKPRVIEGVRCLAVDLKLKDTNPEGFNQLMHFATENQLNILDAEGNSIDAAQVTEI | not failed |
| MSIQAPPRLLELAGQSLLRDQALSISAMEELPRVLYLPLFMEAFRRRHFQTLTVMVQAWPFTCLPLGSLMKTLHLETLKALLEGLHMLLTQKDRPRRWKLQVLDLRDVDENFWARWPGAWALSCFPETMSKRQTAEDCPRMGEHQPLKVFIDICLKEIPQDECLRYLFQWVYQRRGLVHLCCSKLVNYLTPIKHLRKSLKIIYLNSIQQLEIRNMSWPRLIRKLRCYLKEMKNLRKLVFSRCLQNPLENLELTYGYLLEEDMKCLSQYPSLGYLKHLNLSYVLLFRISLEPLGALLEKIAASLETLILEGCQIHYSQLSAILPGLSHCSQLTTFYFGRNCMSMGALKDLLCHTSGLSKLSLETYPAPEESLNSLVRVDWEIFALLRAELMCTLREVRQPKRIFIGPTPCPSCGSSPSEELELHLCC | failed |
| MTLWSVASVLTLAFIFWLNAVMTASPYIVYLSGLKKQSERKNRLVALLLLLASLLYFFLKVGSFAAEGFAGMIDTTYMQFIWTGPVGLFIQLQIAVAIAWIVYSVVKLKRIKWVLYVVAIGLMGWSFLSIGHGSDAVWWGKLALLTHLLVAWVWFGSLNSLRKLATSVPLAKAKAIMERFGVHMSAAVPILLIAGLVMYRSATGRWMPELPLTSYDTVLLAKLVFVALILLVAALHKLKFVPQLNDNAAAKRLKNSITAEMVLAVTIFILASALSSAFSPG | failed |
| MMPPQRSAGTDPEAEHPQYAGQYLLEAALGSGGMGVVHLARSASGLRLAVKVVHAQYAQDPEFRGRFRQEVAAARRVSGAFTAPVVDADPGAGRPWMATLFIPGPTLAEHVKRNGALPPARLRHLMAGLAEALRDIHRAGVVHRDLKPSNVLLAEDGPKVIDFGISRPSDSELRTETGKLIGTPPFMAPEQFRRPREVGPAADVFALGSVIVHAATGSGPFDSDSPYLVAYQVVHDEPDLTGVPEELAELVAGCLAKEPDDRPTPDELMTALRSVSASYDTQAFIPVQRDGSSGSAWRPGPGPGTGPGTGPGPGPGHGGERVVTHQVRQPEPVAAPAARKRLGRRLWIPAVAVAVLACVAGALVLLGPGTGAPREQDAAPSKAAFQPWDIGLSAGGSKATGMAQCAYAPHRLYCTRPGVLAAAVDPADGKVLWSRGDAKRHSDGTVRPPVLSGGLLHVVSEGGKRLAALDPATGKTRWSHDLAAYGGRFAQVGGVVLLTGADARVTALDAATGEEKWRRRIPGQPQPAFVSYGDGLAYAVAAAGSGTKVAAVDPESGATRWQRRFDGVLSLVGAHDGAVWFASTTADSDTDAVVRYDVTRRTVRRVGLRFPLQGAQAVVRKDTVYVLANGGALVAVDTRTSKELWRLETSVSFASAPVAAGDRVYFAGADGRLLAVDASKGVLLGQTKARLGGAHGSLVSGLPSPVAADGKVYSAAPDGSLFAVDARRPGGW | failed |
| MSGIIATYLIHDDSHNLEKKAEQIALGLTIGSWTHLPHLLQEQLKQHKGNVIHVEELAEHEHTNSYLRKKVKRGIIKIEYPLLNFSPDLPAILTTTFGKLSLDGEVKLIDLTFSDELKKHFPGPKFGIDGIRNLLQVHDRPLLMSIFKGMIGRNIGYLKTQLRDQAIGGVDIVKDDEILFENALTPLTKRIVSGKEVLQSVYETYGHKTLYAVNLTGRTFDLKENAKRAVQAGADILLFNVFAYGLDVLQSLAEDDEIPVPIMAHPAVSGAYSASKLYGVSSPLLLGKLLRYAGADFSLFPSPYGSVALEKEEALAISKYLTEDDASFKKSFSVPSAGIHPGFVPFIVRDFGKDVVINAGGGIHGHPNGAQGGGKAFRTAIDATLQNKPLHEVDDINLHSALQIWGNPSYEVKL | not failed |
| MRNIYDLANELERGIRALPEYKNLVEKKEAIATDAEASALFKEFTDFQEDFYAKMQAGTMPTAEEQAAVQELGQKVEANALLKEYLTAQQSLSVYLNDIERIIFKPLQELNN | failed |
| RQLVSGRLEVAADGPHLVMPMLARLRASYPGITVNLRLGNAQETLAALLSEHVDVAVLTEVEARPGLFLEELVNSRICALLPRQHPWCERNEGVPLEELDQQIMVLREPGSITRRTFDRACAEQGVQPRVLLELDSREAVT | failed |
| MKKRFCFVIITLLLIFILGSCNKVTSIRRLQELEEGVSNPNTEAELKDAIRKYEKRVDDIMIAEERIGIWYKILGSRYMDQKMYKKALKAFQSALEYYPENQNLFYQAGLAASLTAKNSLDFELTGTDIEKKRYFDLAVSAYKRALEIDPKHAKAVYALSVLYIFELNRPTEAIPILEKITEWEKKPIDHLFLLGAAYYMTGENEKAIAVYERIIEISSSAEKKAKAESNIREIRSSGGR | failed |
| MKKPVYMKGGLHWLRNDGAIVAFNPETEKARLISIRFPKELCSKTLFTAADNNLILISATEEVFYVYAVENILTDPKWVVLKQIRNGVLDEKMLYSWYPEAYDGKCLMLREILKKDHYKQVLHGYDLRANKWEVIGSIPGWYTSALDFYQFTPSLSSVIGPDAKEEEEILACDHKKISSINSIIRMLDGISS | failed |
| MGMTRNLLAAGLAAVLALPALAAELVMVEQHGCEWCARWNEEIAPIYPKTAEGAFAPLRRVDLRAIPADLETARRVVFTPTFLIVEDGRELARLEGYPGEDFFWPLLEQLLVDHAGFVPKKPGSS | failed |
